We go through two molecules from patent US20060223757, “Zinc finger binding domains for GNN” (published 2006).

The target in data set [1] is T1, E3 (six-finger Sp1C framework protein) (synthetic construct). Briefly: EMSA; ±10%; ZBA buffer with ZnCl2, room temperature.
Data set [2] deals with T2, E2C (six-finger Sp1C framework protein) (synthetic construct). Briefly: EMSA; ±30%; 3 mismatches to E2C target.
For data set [3], the target named is T1, E3 (six-finger Sp1C framework protein). Briefly: EMSA; ±15%; about 30-fold lower affinity than E3 target.
Data set [4] addresses T2, E2C (six-finger Sp1C framework protein). Briefly: EMSA; ±15%; ZBA buffer with ZnCl2, room temperature. (A gel shift assay detects complexes by their altered migration in electrophoresis.)

T1 sequence (chain, as listed by the source): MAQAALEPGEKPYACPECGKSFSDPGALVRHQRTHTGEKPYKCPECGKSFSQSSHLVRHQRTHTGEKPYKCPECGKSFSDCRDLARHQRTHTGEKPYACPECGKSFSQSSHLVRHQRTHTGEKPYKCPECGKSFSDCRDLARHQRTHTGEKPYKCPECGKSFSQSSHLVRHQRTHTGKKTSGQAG
T2 sequence (chain, as listed by the source): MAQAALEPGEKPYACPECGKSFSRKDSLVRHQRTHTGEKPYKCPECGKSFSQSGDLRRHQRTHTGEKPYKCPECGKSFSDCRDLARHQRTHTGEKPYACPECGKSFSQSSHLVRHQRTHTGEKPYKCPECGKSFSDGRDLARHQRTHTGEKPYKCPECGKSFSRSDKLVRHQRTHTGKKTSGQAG

B1: E3 target site (erbB-3 5'-UTR) (dsDNA)
DNA 1: GGAGCCGGAGCCGGAGTC
DNA 2: GACTCCGGCTCCGGCTCC
Regarding B1, the Kd (as a rule, the equilibrium constant for the complex coming apart) in data set [1] was found to be 0.35 nM; in data set [2] it was 11 nM.

B2: E2C target site (erbB-2 5'-UTR) (dsDNA)
DNA 1: GGGGCCGGAGCCGCAGTG
DNA 2: CACTGCGGCTCCGGCCCC
As for B2, the Kd in data set [3] worked out at 10 nM; in data set [4] it was 0.75 nM.
